This passage reports stoichiometry N (CheY per CheA) results from PMC5705603.

In this assay the target is Segmentally labelled CheA (P1 domain and P2-5 part labelled differently and joined) (Escherichia coli) (UniProt P07363). The experiment in a line: NMR titration.
UniProt P07363, sequence (P07363 whole entry, the tested form may be a part): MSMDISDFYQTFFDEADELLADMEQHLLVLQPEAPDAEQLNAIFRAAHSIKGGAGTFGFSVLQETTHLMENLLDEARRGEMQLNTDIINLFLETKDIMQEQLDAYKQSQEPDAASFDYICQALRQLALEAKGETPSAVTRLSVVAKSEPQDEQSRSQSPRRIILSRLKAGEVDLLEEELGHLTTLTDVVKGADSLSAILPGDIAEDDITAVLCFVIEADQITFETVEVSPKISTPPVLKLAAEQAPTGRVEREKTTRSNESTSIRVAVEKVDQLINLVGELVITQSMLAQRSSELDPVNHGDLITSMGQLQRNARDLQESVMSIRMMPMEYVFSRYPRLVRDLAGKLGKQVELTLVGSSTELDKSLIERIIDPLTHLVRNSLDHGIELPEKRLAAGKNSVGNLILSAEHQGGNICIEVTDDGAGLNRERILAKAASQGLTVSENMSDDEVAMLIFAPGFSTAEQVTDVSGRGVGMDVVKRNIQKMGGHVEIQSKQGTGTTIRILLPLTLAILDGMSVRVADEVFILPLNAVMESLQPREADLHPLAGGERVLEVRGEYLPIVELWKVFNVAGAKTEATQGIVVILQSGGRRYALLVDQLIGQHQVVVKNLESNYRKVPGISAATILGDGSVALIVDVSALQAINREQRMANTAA

Substance “CheY from Escherichia coli, wild type (from UniProt P0AE67 1-129) (natural protein)” returned a stoichiometry N (CheY per CheA) of 2.
